Laboratory results from patent US20070207967A1, “Peptide Inhibitors of Matrix Metalloproteinase Activity” (CTT CANCER TARGETING TECHNOLOGIES OY, priority 2004, published 2007).
Ends that are not written are not given here.

Target: 125I-labelled MMP-9 C domain (UniProt P14780)
Assay: phage-binding assay, 125I-labelled against unlabelled MMP-9 C domain

Chain of 125I-labelled MMP-9 C domain (P14780 513-707 limits assumed, form in doubt): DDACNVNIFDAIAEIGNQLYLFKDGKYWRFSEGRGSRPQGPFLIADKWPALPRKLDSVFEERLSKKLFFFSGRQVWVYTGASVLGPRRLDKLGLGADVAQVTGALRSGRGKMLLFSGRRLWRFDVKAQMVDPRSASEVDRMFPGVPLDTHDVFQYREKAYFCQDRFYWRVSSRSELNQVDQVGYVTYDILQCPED

B1: CRV phage (… displayed on phage) (peptide)
peptide: CRVYGPYLLC
modifications: cysteine pairing not given here; also: displayed on phage as coat protein fusion
% of CRV peptide-binding activity retained after 125I-labelling: 40%
